For the data set, the target named is ZFHD1 (Zif268 zinc fingers-Oct1 homeodomain chimera) fused to 3xFKBP (UniProt P08046+P14859). The data set can be described thus: cell_activity. To be noted: SEAP reporter in HT1080 cells; rapamycin-dependent, peak at 5 nM; no SEAP without either fusion.
Chain of ZFHD1 (Zif268 zinc fingers-Oct1 homeodomain chimera) fused to 3xFKBP (P08046 whole entry, change not shown, chain 1 of 2, the tested form may be a part): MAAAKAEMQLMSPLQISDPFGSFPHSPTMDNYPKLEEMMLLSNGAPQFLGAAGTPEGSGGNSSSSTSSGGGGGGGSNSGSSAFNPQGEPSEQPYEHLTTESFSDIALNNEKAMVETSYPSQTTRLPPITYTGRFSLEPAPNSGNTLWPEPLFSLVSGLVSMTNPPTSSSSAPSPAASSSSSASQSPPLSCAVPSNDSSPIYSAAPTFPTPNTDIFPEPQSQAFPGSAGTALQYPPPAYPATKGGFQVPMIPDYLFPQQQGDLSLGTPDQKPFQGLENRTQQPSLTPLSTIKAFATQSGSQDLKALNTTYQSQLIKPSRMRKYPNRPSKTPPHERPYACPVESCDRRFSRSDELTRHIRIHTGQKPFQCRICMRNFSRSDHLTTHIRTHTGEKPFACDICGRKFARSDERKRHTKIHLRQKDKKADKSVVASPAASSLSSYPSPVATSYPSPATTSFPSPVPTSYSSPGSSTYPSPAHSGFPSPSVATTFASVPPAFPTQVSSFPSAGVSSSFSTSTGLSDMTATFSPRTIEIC
Chain of ZFHD1 (Zif268 zinc fingers-Oct1 homeodomain chimera) fused to 3xFKBP (P14859 whole entry, change not shown, chain 2 of 2, the tested form may be a part): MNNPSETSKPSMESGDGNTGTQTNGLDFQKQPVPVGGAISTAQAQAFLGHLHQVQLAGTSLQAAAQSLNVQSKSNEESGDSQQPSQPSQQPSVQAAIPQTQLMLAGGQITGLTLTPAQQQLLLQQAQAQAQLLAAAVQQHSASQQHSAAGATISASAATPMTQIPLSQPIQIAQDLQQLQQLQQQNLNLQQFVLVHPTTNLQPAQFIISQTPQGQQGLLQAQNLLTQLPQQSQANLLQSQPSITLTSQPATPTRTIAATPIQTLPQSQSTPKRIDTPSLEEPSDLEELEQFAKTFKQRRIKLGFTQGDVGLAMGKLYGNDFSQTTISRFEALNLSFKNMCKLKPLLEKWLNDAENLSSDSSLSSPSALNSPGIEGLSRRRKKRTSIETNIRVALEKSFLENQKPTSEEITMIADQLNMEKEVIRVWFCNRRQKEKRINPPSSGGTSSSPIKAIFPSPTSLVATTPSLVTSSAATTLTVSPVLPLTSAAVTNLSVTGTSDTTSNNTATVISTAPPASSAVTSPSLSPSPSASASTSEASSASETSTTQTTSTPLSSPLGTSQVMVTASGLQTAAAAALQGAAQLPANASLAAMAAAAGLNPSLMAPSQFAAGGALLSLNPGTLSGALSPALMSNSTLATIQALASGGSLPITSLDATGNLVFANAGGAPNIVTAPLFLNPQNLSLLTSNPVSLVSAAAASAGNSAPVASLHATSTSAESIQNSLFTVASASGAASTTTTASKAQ

In turn, “GCTAGCTAATGATGGGCGCTCGAGTAATGATGGGCGGTCGACTAATGATGGGCGCTCGAGTAATGATGGGCGTCTAGCTAATGATGGGCGCTCGAGTAATGATGGGCGGTCGACTAATGATGGGCGCTCGAGTAATGATGGGCGTCTAGCTAATGATGGGCGCTCGAGTAATGATGGGCGGTCGACTAATGATGGGCGCTCGAGTAATGATGGGCGTCTAGA (double strand) [12x ZFHD1 binding sites (pZHWTx12)]” had an activity of more than 1000 fold.
